Test results: the supplement of paper PMC12764529
± gives the half width of the 95% confidence interval.

assay: folding stability dG unfold (combined trypsin and chymotrypsin); higher = more stable
Method: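 Folding stability of de novo designed mini-proteins (<80 aa, no Cys; designed by TrROS, TrMRF, ProteinMPNN and the joint model) was measured by cDNA display proteolysis with trypsin and chymotrypsin. Each protease was used at 11 concentrations in a threefold dilution series plus a no-protease condition. K50 was inferred by Bayesian fitting of sequencing counts, and dG unfold was derived against a sequence-predicted unfolded-state K50 (Tsuboyama et al. method). Sequences shown include variable-length N-terminal GS-type padding (SAGGSAGG...) inside a display construct carrying a PA tag. Rows were kept only if the AF2 dimer inter-PAE was >15, to exclude likely homo-oligomers.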

| Sequence | folding stability dG unfold |
| --- | --- |
| SAGGSAGGMKTEVVEETVPLRNEDGKLLPSDALLETELPDKKVLTLVERDPNSDTVKTTRVILESAGGSAGG [r6_659_JUSTAS] | < -1 kcal/mol |
| SAGGSAGGSAGTLDELKNAPPGEERTVRVDFQIYEMRPDPNGKPEMEPVSPMRMEITFKPSAGGSAGGSAGG [r11_36_TrROS] | < -1 kcal/mol |
| SAGGSAGGSASSTTVPLEIPAPEGAVVELTFPDGTTVKATVTPRPDGSYTLKVGNGEIVAPRSAGGSAGGSA [r18_372_JUSTAS] | < -1 kcal/mol |
| SGINTEYTVTSVGPAGTPVTTELKTKIGNKEYSLTRTYQDPSGSVRLVNWKITSSPSGSSTISETVSPLPSA [r9_255_JUSTAS] | < -1 kcal/mol |
| SAGGSAGGSLKPGAPVMYRIRNPENGRKFPFQIKIKEDGGIDIEYPSNGKTMTIPPDNIEPVPSAGGSAGGS [r12_726_TrROS] | < -1 kcal/mol |
| SAGGPGPPPLEPVVVPVDDGVAVFTRSPDGSLHVEIGPRSGPVVASATAPLPEDSELTVDAVVLPEELSAGG [r13_584_TrMRF] | < -1 kcal/mol |
| SAGMVIPATSEEEAEAFAKELGPETGYEVEIEKVPADEPVEDVDPNDILVVLPESGTVYRIHVRRPDEESAG [r5_173_TrMRF] | < -1 kcal/mol |
| SAGGSAGGYEIPIKIKITNPDNNKPVTFEIPIRYDKDNGRPPSPEQIARELAERSPGFKITEIESAGGSAGG [r6_821_TrROS] | < -1 kcal/mol |
| SAGGSAGGSAGGMALEPKTVTSTLTVFFPDTGKTYPLTETVFIPTKFNLPLPPFPPETLSAGGSAGGSAGGS [r10_1026_JUSTAS] | < -1 kcal/mol |
| SAGGSAGGSANFDINIEPHPDKDYLVITVTIPPGMPPGQKVRTWVIDPPDGKILEPEPIKIPDSAGGSAGGS [r12_564_TrROS] | < -1 kcal/mol |
| SAGGSAGGSAGGSTVLRLERVPGTGLLVERLVTPSGSGYSVEVTVRPVGEEEREALPLGSAGGSAGGSAGGS [r10_291_JUSTAS] | < -1 kcal/mol |
| SMELLEAVKKGVKTVTVLLKPGDEEKVKLAAELPVNIVLKASPEISEEVFKKIPGINLTEVKPLSPEELPSA [r9_671_JUSTAS] | < -1 kcal/mol |
| SAGGSAGEKTLKIVIEGKDKEKVVKEAKPLLEKLFGAKEIKVKVEPLPDGGYKVPIEITVPPGAAKSAGGSA [r15_173_TrMRF] | < -1 kcal/mol |
| SAGGSATIEIDPPHGKIEIEVNVPVYEKRKDPDGKEEPEPQELPPEEAQEFAKMMADTFAQKLNGKSAGGSA [r15_365_TrROS] | < -1 kcal/mol |
| SAGGSAGGSGSGSVTVPVTSTDPVTGKPSVSTVTVSLDVVPPPPVPATVFFDPVRGRRSTDLGGSAGGSAGG [r6_926_JUSTAS] | < -1 kcal/mol |
| SAGGSAGGSAGGPEWKEVPFTLRMPDGEPMDAKVYIDPEGPLEIENDDKWHTFPADQLKSAGGSAGGSAGGS [r10_649_TrROS] | < -1 kcal/mol |
| SAGGFYRLKIYNPDNGQPIEFPINWDEVEEAIKNGDLDELAEHYPGAPIDKIEVEPVKPVPPVPPDEKSAGG [r13_629_TrROS] | < -1 kcal/mol |
| SAGGSAGGSYPFRIKIVNPNGKKIIPIPYQFDPEDGKLEPFTEDQLDEIAKQLGPNFKKIEIYSAGGSAGGS [r12_514_TrROS] | < -1 kcal/mol |
| SAGGSAGGSPKWKVEPIGNRIRIMIPDGPYYTARLPDDVKLDLDEGKFKFPPGLEVEPVPLKESAGGSAGGS [r20_158_TrROS] | < -1 kcal/mol |
| SAGGMSPNQKVTIEIDNWHPGPGGNYFNVRIRNPGNGKPREINGPGDNPEDMKKEIEELVKAGPIEIYSAGG [r13_286_TrROS] | < -1 kcal/mol |
| SAGGSAGGSAGGKKKKIKLFIDHYFDGPPNINPEKIEKELKEKGIDVEVVLNALPKENKKSAGGSAGGSAGG [r7_355_TrMRF] | < -1 kcal/mol |
| SAGGSAGGSAGGSTKSINFKNPSNIRDALREAQDEGVKPVVIYFPDGKTRKIPPGDPITSAGGSAGGSAGGS [r4_260_TrROS] | < -1 kcal/mol |

| Sequence | folding stability dG unfold |
| --- | --- |
| SAGGDYVSITIDDPNPGMPPEELAQEIIRELNPDGFPIKPKKIEPERHDGRPKVTITFRVDDPEAIKKSAGG [r13_979_TrROS] | < -1 kcal/mol |
| SAGDRKVIHINGFEPEQFRKIIREAKDKGPPGDRIWIPSPEYVDELKELDPNLPVEVHNMDNGEWQEIESAG [r5_391_TrROS] | < -1 kcal/mol |
| SAGGSAGGSAGGNPGQEVTYQIKIPIRDKNGEPDWKIDIPVTMDTPQDADRFAKEIAKRSAGGSAGGSAGGS [r10_57_TrROS] | < -1 kcal/mol |
| SAGGSAKPYIVIKGEYENPGKKHDMDIQIPPEDLDNPERARELAEEIKDEMRQQGAPVKDVEIEPVSAGGSA [r15_781_TrROS] | < -1 kcal/mol |
| SAGGTIKDLLRELPGFDSVEVDEDSGVIYVRNPDRYYKIEIPVQKQPDDDGKDRPITPVKIEPYPPNSAGGS [r16_65_TrROS] | < -1 kcal/mol |
| SAGGSAGGSFEVHYDPEPNNLTIRMEFPGGRRTYRIPSADDVKDWFEDMGMPFKPMEITKIEPSAGGSAGGS [r12_834_TrROS] | < -1 kcal/mol |
| SAGMQTKTLAETKENGKITVTTLTTTESGEETTVTETIEVGPVPIPPLTVEVRLRPDGRLEFEYHIPLSAGG [r19_172_JUSTAS] | -0.861 ± 0.51 kcal/mol |
| SAGGSAGGSSYTLVRVVEHPDSVVEYYKAPDGTVIVKRNDEEIEIPPSVPASSLPEDADVVLESAGGSAGGS [r12_594_JUSTAS] | < -1 kcal/mol |
| SAGGSAGGSRYFIRIELRHPDDGQEYEPTIPINPGQTEEQVKQEIREHHPGADIKDIEIYPMDSAGGSAGGS [r12_738_TrROS] | < -1 kcal/mol |
| SAGGSAGGMSLIVKSEEEAREILKKLGWKVKKLNITKLKDESGTVKIPVEIEPVPKGKLSEELISAGGSAGG [r6_981_JUSTAS] | < -1 kcal/mol |
| SAGGSAGGSAGMPVIEEKLVFYTGDGTPREKKVKVTTTPLPNGTTKKTYDIPKDEIKKLPSAGGSAGGSAGG [r11_816_JUSTAS] | < -1 kcal/mol |
| SAGGSAGGSVVIPMEDLSNMPWERIRDQIKKSPDPVTITMPNPEGMKRAQDLFKEEGVPITVVSAGGSAGGS [r12_97_TrROS] | < -1 kcal/mol |
| SAGGSAGGSAGGSMTPITTTEEVDPDFKEETIKVKNFPATTTPIPEENKRTTTIPTSLFSAGGSAGGSAGGS [r4_430_JUSTAS] | < -1 kcal/mol |
| SAGGSAGGSAGNVITFPDGYYIRVTGPGPREIPIPPENAEDFVDEISKLPGIQDIEIQPRSAGGSAGGSAGG [r11_587_TrROS] | < -1 kcal/mol |
| SAGGMEEKVINIPLSNGEEATITITIENEPGKNKAIVPINSKSVPAEELAKKLKKELPESITDLTVVKSAGG [r13_404_JUSTAS] | < -1 kcal/mol |
| SAMLVVKNKKTKKPIEIKIDPSMTPEEIKKKIEKLPDIPEEQKKEVEEAIELYIKLLENPELAKKFEKESAG [r14_732_TrMRF] | < -1 kcal/mol |
| PEPGAVETRETDYIDPNNNNKYKATITTTRDPNSDLATVNTTIKLPNGETLNYSATINPNPGTVTSTTSISS [r1_144_JUSTAS] | -0.628 ± 0.48 kcal/mol |
| SAGGSAGGIKIDPNIKEITWHQNPNGMFYHTIKVDEGKKVAPVRFPPDQPPEQMWDNAKEALKESAGGSAGG [r6_436_TrROS] | < -1 kcal/mol |
| SSPVVEAIEAEAAARGLPVEVSVSPDENGNPVVPVRVLTPEVLAAGEPRLAERVRPVTTDGRTVTVRVVASA [r9_489_JUSTAS] | < -1 kcal/mol |
| SAGGSAMPVKIELVERKRDPNSDTYYATVKITNPNKTITLPIKLDVPEEEAEKEVKEKAEEIAKKGSAGGSA [r15_979_JUSTAS] | < -1 kcal/mol |
| SAGGSAGGSAGAPRVRSVTPVGEETFFLPEDRVVRVTLWAAEGEGPPRLFRRVEVLPLDESAGGSAGGSAGG [r11_129_TrMRF] | < -1 kcal/mol |
| SAGGMPLEKIKEIKLVKEKEDGEKEILIVVEDPELVKEGNVEEVKKLAEALAEELKKKGIKVKIEVKPSAGG [r13_243_TrROS_Hall] | < -1 kcal/mol |
